The results in this text go back to patent US20250147035A1, “METHODS FOR DETECTION OF POST-TRANSLATIONAL MODIFICATIONS” (Quantum-Si Incorporated, priority 2023, published 2025).

For assay [1], the target named is T1, …-Biotin.
T1 sequence (peptide, C-terminal Biotin): SAKLDEESILKQ
In words: Octet (BLI), fixed reagent concentration. On the technique in general: Biolayer interferometry detects binding as a change in optical thickness at a sensor tip.

The target of assay [2] is T2, p…-Biotin.
T2 sequence (peptide, phosphothreonine at 1; C-terminal Biotin): TAKLDEESILKQ
Nature of the assay: Octet (BLI), fixed reagent concentration.

Assay [3] deals with p[…]-Biotin. In words: Octet binding assay of PTM-specific affinity reagent candidates, pTQR peptide. The conditions noted are these: fixed concentration of reagent. Here is the method:
This Example characterizes an exemplary phosphorylated threonine recognizer for use in methods of the disclosure. Octet binding assays at a fixed concentration of PTM-specific affinity reagent candidates were evaluated for binding with phospho-threonine, phospho-serine containing peptides (p[…]-Biotin; p[…]-Biotin; p[…]-Biotin), and control peptides without modifications ([…]-Biotin; […]-Biotin).

Assay [4] has as its system SAKLDEESILKQ-Biotin. In words: Octet binding assay of PTM-specific affinity reagent candidates, SA control peptide. Set-up: unit not given here. The conditions noted are these: fixed concentration of reagent. The text has this:
This Example characterizes an exemplary phosphorylated threonine recognizer for use in methods of the disclosure.

Assay [5] concerns the target T3, pSAKLDEESILKQ-Biotin.
T3 peptide: [pS]AKLDEESILKQ-{Biotin′}
Nature of the assay: Octet (BLI), fixed reagent concentration.
Description: Octet binding assays at a fixed concentration of PTM-specific affinity reagent candidates were evaluated for binding with phospho-threonine, phospho-serine containing peptides (p[sequence]-Biotin; p[sequence]-Biotin; p[sequence]-Biotin), and control peptides without modifications ([sequence]-Biotin; [sequence]-Biotin).

Where two headings read alike, the source gives them in different places. Primed or numbered codes have the meaning given here. Where no end group is shown, it is not given here. [ ]: non-standard residue; d: D form. pS = N[C@@H](COP(=O)(O)O)C(=O)O; Biotin′ = not defined here

Consider “PM16 (Human/PLK1) (from UniProt P53350 326-603)”, for which the Octet binding assay response worked out at 0.5 in assay [1], 1.7 in assay [2] (pTA phosphothreonine peptide) and 2.1 in assay [2] (pTQR phosphothreonine peptide).
For the molecule “PM08 (Human/DLG4) (from UniProt P78352 426-724)”, the Octet binding assay response in assay [1] was 0.3; in assay [2] it was 1.2.
With PM08: Human/DLG4, SEQ ID NO: 8, the “Octet binding assay response, pTQR” value in assay [3] is listed as 1.2.
“PM09 (Human/BRCA1 Tandem domain) (from UniProt P38398 1646-1859)” had an Octet binding assay response in assay [1] of 0.1.
Consider PM15: Human/Pin1, SEQ ID NO: 15, for which the “Octet binding assay response, SA” value in assay [4] (SA = […]-Biotin (control)) is on record as 0.5. Besides, in assay [3], the “Octet binding assay response, pTQR” value is listed as 7.4.
“PM02: Human/14-3-3 protein theta, SEQ ID NO: 2”: the “Octet binding assay response, pTQR” value in assay [3] turned out to be 0.5.
For the molecule “PM03: Human/14-3-3 protein eta, SEQ ID NO: 3”, the “Octet binding assay response, SA” value in assay [4] (SA = […]-Biotin (control)) was found to be 0.3. Further, the “Octet binding assay response, pTQR” value in assay [3] is on record as 0.4.
Consider “PM15 (Human/Pin1) (from UniProt Q13526 1-163)”, for which the Octet binding assay response in assay [1] was 0.5.

B1: PM11 (Human/TOPBP1) (other)
chain: MVYNMVMSDVTISCTSLEKEKREEVHKYVQMMGGRVYRDLNVSVTHLIAGEVGSKKYLVAANLKKPILLPSWIKTLWEKSQEKKITRYTD
B1: the Octet binding assay response in assay [1] and in assay [5] was 0.2 throughout.

B2: PM01 (Human/14-3-3 protein epsilon) (other)
chain: MDDREDLVYQAKLAEQAERYDEMVESMKKVAGMDVELTVEERNLLSVAYKNVIGARRASWRIISSIEQKEENKGGEDKLKMIREYRQMVETELKLICCDILDVLDKHLIPAANTGESKVFYYKMKGDYHRYLAEFATGNDRKEAAENSLVAYKAASDIAMTELPPTHPIRLGLALNFSVFYYEILNSPDRACRLAKAAFDDAIAELDTLSEESYKDSTLIMQLLRDNLTLWTSDMQGDGEEQNKEALQDVEDENQ
As to B2, the Octet binding assay response in assay [1] and in assay [5] was 0.2 throughout.

B3: PM22 (Schizosaccharomyces pombe/FCP1) (other)
chain: MKQKVLKGCRLLFSGVIPLGVDVLSSDIAKWAMSFGAEVVLDFSVPPTHLIAAKIRTEKVKKAVSMGNIKVVKLNWLTESLSQWKRLPESDYLL
On to B3, for which the figures for the Octet binding assay response in assay [1] and in assay [5] were 0.2 and 0.1, respectively.

B4: PM22: Schizosaccharomyces pombe/FCP1, SEQ ID NO: 22 (protein)
chain: MKQKVLKGCRLLFSGVIPLGVDVLSSDIAKWAMSFGAEVVLDFSVPPTHLIAAKIRTEKVKKAVSMGNIKVVKLNWLTESLSQWKRLPESDYLL
Turning to B4, the “Octet binding assay response, SA” value in assay [4] (SA = SAKLDEESILKQ-Biotin (control)) stood at 0.2.

B5: PM04 (Human/14-3-3 protein gamma) (other)
chain: MVDREQLVQKARLAEQAERYDDMAAAMKNVTELNEPLSNEERNLLSVAYKNVVGARRSSWRVISSIEQKTSADGNEKKIEMVRAYREKIEKELEAVCQDVLSLLDNYLIKNCSETQYESKVFYLKMKGDYYRYLAEVATGEKRATVVESSEKAYSEAHEISKEHMQPTHPIRLGLALNYSVFYYEIQNAPEQACHLAKTAFDDAIAELDTLNEDSYKDSTLIMQLLRDNLTLWTSDQQDDDGGEGNN
For B5, the Octet binding assay response in assay [1] and in assay [5] was 0.1 throughout.

B6: PM17 (Human/DIDO1) (other)
chain: MTLFLSRLSTIWKGFINMQSVAKFVTKAYPVSGCFDYLSEDLPDTIHIGGRIAPKTVWDYVGKLKSSVSKELCLIRFHPATEEEEVAYISLYSYFSSRGRFGVVANNNRHVKDLYLIPLSAQDPVPSKLLPFEGPGLESPRPNIILGLVICQKIKRPANS
Regarding B6, the Octet binding assay response in assay [1] and in assay [5] was 0.2 in each case.
